Test results taken from PMC6152312, “Structural Insight into the Recognition of r(UAG) by Musashi-1 RBD2, and Construction of a Model of Musashi-1 RBD1-2 Bound to the Minimum Target RNA”.

Molecular target: Msi1(109-200) (RBD2+) (mouse, UniProt Q61474 109-200)
Test: NMR titration (15N-1H HSQC); 1:1 stoichiometry, slow exchange; 20 mM MES pH 6.0, 100 mM NaCl, 1 mM DTT, 5% D2O, 298 K (NMR sample; titration at 80 uM protein)
Conditions: protein: recombinant; tags: N-terminal His6 cleaved by thrombin; extra GSHM at N-terminus; single strand

Sequence of Msi1(109-200) (RBD2+) (Q61474 109-200): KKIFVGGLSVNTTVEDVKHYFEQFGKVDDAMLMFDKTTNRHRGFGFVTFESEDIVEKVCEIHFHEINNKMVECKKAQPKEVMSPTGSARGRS

B1: r(GUAGU) (ssRNA)
RNA: GUAGU
B1: binds.
